According to patent publication US20250262210A1 (TRUSTEES OF COLUMBIA UNIVERSITY IN THE CITY OF NEW YORK, published 2025):

Experiments:
KIAA1468 = molecular target: T1, KIAA1468 (human, UniProt Q9P260 2-1216, limits assumed); assay: IP/MS, LZTR1 wild type-FLAG, U87
T1 sequence (looked up): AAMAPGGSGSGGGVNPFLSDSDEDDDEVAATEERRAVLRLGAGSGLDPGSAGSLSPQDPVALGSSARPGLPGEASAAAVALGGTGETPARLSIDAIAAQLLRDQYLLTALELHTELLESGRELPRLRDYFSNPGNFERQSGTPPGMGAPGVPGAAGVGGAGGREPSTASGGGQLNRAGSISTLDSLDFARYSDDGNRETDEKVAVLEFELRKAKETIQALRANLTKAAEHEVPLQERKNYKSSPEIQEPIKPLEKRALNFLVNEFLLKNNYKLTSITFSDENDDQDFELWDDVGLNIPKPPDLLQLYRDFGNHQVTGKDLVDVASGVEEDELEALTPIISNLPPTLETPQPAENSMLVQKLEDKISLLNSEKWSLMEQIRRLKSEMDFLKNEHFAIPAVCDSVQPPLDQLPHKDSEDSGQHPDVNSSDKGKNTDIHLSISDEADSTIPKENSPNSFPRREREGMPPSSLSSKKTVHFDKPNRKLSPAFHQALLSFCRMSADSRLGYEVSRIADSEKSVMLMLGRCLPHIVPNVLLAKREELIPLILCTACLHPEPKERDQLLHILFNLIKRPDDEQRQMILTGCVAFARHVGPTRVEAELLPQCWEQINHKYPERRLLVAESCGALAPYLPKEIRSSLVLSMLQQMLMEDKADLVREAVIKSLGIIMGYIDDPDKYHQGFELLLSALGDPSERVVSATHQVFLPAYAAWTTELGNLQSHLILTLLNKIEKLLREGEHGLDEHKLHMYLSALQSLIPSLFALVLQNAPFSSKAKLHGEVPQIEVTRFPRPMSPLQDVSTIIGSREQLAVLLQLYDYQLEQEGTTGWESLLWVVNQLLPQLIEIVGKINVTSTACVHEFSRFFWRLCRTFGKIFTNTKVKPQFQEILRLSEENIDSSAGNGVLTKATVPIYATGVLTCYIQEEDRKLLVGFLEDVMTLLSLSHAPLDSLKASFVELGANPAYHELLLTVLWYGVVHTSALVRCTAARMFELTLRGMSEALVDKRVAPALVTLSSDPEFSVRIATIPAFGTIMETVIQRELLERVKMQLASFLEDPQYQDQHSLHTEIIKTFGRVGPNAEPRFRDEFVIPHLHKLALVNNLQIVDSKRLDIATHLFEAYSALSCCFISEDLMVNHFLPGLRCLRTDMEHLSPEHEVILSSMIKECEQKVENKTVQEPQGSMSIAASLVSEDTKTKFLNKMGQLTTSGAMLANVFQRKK
Method in brief: (§1)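 Gel slices were reduced with 5 mM DTT, alkylated with 11 mM IAA and digested overnight at 37° C. with trypsin. Peptides were analysed on an Orbitrap Fusion Tribrid by LC-MS/MS.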

ALPK2 = ALPK2 (human, UniProt Q86TB3 1-2170); assay: IP/MS, LZTR1 wild type-FLAG, U87
Method in brief: as §1

Sequence of ALPK2 (Q86TB3 whole entry): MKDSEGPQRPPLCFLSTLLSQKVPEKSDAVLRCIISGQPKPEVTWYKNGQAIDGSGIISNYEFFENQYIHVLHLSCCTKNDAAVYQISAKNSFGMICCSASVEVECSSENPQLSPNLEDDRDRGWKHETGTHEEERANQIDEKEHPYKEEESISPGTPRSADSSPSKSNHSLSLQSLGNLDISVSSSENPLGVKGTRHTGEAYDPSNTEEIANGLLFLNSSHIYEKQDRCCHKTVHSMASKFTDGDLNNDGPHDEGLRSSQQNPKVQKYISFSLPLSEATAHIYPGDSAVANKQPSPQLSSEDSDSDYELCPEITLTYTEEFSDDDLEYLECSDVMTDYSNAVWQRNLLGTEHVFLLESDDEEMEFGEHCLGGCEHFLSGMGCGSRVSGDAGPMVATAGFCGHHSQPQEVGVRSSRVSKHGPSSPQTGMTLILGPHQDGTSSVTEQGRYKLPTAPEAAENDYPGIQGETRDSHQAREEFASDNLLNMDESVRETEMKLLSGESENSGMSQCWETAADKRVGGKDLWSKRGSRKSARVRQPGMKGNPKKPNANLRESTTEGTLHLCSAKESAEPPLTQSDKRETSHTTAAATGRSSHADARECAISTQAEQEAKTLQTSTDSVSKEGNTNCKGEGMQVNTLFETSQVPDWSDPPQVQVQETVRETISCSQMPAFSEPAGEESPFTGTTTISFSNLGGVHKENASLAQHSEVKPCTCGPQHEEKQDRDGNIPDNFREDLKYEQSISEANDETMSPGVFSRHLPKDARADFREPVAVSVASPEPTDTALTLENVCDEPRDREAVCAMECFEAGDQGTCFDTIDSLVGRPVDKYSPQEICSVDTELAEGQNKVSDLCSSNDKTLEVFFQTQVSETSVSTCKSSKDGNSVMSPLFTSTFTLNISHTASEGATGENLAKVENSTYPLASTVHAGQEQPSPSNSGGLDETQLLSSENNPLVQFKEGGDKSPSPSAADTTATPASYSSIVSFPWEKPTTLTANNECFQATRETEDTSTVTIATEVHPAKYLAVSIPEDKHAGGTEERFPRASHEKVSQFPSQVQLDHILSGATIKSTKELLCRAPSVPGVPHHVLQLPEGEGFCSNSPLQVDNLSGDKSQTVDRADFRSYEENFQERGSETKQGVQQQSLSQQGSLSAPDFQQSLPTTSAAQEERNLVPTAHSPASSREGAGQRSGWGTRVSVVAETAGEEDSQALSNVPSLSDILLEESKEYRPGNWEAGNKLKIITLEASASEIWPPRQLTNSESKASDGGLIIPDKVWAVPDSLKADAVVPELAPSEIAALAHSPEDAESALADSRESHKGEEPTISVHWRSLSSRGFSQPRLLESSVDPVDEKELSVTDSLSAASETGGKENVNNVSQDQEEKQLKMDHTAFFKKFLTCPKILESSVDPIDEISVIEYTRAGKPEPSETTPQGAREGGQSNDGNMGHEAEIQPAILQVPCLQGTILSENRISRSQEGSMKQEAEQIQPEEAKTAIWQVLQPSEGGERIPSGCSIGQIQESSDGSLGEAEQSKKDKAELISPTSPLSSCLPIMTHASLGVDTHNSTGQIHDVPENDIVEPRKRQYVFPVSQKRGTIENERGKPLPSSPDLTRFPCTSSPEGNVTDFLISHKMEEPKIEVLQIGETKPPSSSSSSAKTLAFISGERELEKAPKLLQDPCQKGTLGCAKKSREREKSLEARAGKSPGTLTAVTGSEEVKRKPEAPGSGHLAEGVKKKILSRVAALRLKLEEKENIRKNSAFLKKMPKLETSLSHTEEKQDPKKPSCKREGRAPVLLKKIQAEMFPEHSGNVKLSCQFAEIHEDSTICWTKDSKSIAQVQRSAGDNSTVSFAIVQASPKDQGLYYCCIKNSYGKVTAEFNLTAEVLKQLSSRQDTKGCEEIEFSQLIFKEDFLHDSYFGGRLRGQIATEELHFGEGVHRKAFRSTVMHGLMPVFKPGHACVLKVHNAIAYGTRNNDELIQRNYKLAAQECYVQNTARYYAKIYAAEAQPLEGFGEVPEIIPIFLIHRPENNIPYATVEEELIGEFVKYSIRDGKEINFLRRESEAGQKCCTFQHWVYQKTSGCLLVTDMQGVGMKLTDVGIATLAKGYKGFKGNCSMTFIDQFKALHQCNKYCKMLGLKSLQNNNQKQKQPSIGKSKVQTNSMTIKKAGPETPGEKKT

binding result (KIAA1468): binds
binding result (ALPK2): binds
B1: LZTR1-FLAG (other, human, UniProt Q8N653 1-840, looked up)
chain: MAGPGSTGGQIGAAALAGGARSKVAPSVDFDHSCSDSVEYLTLNFGPFETVHRWRRLPPCDEFVGARRSKHTVVAYKDAIYVFGGDNGKTMLNDLLRFDVKDCSWCRAFTTGTPPAPRYHHSAVVYGSSMFVFGGYTGDIYSNSNLKNKNDLFEYKFATGQWTEWKIEGRLPVARSAHGATVYSDKLWIFAGYDGNARLNDMWTIGLQDRELTCWEEVAQSGEIPPSCCNFPVAVCRDKMFVFSGQSGAKITNNLFQFEFKDKTWTRIPTEHLLRGSPPPPQRRYGHTMVAFDRHLYVFGGAADNTLPNELHCYDVDFQTWEVVQPSSDSEVGGAEVPERACASEEVPTLTYEERVGFKKSRDVFGLDFGTTSAKQPTQPASELPSGRLFHAAAVISDAMYIFGGTVDNNIRSGEMYRFQFSCYPKCTLHEDYGRLWESRQFCDVEFVLGEKEECVQGHVAIVTARSRWLRRKITQARERLAQKLEQEAAPVPREAPGVAAGGARPPLLHVAIREAEARPFEVLMQFLYTDKIKYPRKGHVEDVLLIMDVYKLALSFQLCRLEQLCRQYIEASVDLQNVLVVCESAARLQLSQLKEHCLNFVVKESHFNQVIMMKEFERLSSPLIVEIVRRKQQPPPRTPLDQPVDIGTSLIQDMKAYLEGAGAEFCDITLLLDGHPRPAHKAILAARSSYFEAMFRSFMPEDGQVNISIGEMVPSRQAFESMLRYIYYGEVNMPPEDSLYLFAAPYYYGFYNNRLQAYCKQNLEMNVTVQNVLQILEAADKTQALDMKRHCLHIIVHQFTKVSKLPTLRSLSQQLLLDIIDSLASHISDKQCAELGADI
notes: Expressed in HEK 293T, HeLa or U87 cells; used as cell lysate; also called LZTR1 wild type-FLAG; LZTR1 WT; not shown: FLAG tag at the C-terminus
